For orientation: stoichiometry N means the number of molecules, sites or subunits per partner or assembly.

The values that follow come from publication doi:10.1101/2022.01.11.475947.

The test has as its target prefusion-stabilized SARS-CoV-2 spike protein (S-clamp) (SARS-CoV-2). Put plainly: SEC. In general terms: In gel filtration, larger molecules generally elute earlier.

For “prefusion-stabilized SARS-CoV-2 spike protein (S-clamp)”, the stoichiometry N worked out at 3.
